Experimental findings from patent US20240141039A1 (AGENUS, published 2024) are described below.

The target of assay [1] is T1, wild type full-length cynomolgus monkey CD96 isoform 2 expressed on CHO cells (cynomolgus monkey, UniProt A0A2K5TWV6 22-569).
T1 construct: whole, on cells; also called cynomolgus CD96-CHO cells; cynomolgus CD96-CHO (isoform 2)
T1 sequence: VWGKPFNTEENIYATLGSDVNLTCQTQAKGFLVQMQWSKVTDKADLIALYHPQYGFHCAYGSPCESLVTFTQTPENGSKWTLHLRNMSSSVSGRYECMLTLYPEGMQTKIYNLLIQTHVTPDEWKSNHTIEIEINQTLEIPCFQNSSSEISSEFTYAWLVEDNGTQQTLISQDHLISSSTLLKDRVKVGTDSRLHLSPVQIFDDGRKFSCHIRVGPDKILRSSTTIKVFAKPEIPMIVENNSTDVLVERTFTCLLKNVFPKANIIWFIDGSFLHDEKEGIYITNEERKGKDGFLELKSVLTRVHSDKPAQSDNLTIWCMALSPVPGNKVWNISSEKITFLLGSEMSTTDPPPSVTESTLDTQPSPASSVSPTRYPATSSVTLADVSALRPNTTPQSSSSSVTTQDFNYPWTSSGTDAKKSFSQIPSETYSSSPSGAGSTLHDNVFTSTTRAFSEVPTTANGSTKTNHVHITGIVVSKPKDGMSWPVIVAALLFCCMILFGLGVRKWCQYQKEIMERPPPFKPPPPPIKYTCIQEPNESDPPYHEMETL
In words: flow cytometry, cynomolgus CD96 (isoform 2) CHO cells, 1 experiment.

In assay [2] the target is T2, full-length isoform 2 ECD of cynomolgus monkey CD96 (His-tagged) (cynomolgus monkey).
T2 construct: also called His-tagged isoform 2 of cynomolgus monkey CD96; cyno CD96 extracellular domain isoform 2
T2 chain: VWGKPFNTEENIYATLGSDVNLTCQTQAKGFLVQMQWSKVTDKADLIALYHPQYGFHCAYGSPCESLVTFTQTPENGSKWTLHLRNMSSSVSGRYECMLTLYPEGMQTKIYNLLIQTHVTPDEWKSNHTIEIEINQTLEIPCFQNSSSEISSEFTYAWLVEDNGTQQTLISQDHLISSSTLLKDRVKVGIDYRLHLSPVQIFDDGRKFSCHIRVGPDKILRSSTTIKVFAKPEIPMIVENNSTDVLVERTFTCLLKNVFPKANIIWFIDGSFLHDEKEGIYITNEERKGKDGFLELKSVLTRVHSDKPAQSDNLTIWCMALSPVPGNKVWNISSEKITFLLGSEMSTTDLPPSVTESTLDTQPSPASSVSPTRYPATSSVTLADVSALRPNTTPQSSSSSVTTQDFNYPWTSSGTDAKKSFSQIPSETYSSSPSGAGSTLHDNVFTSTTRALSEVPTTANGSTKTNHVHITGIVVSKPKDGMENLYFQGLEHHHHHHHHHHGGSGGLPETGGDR
The assay is described as follows: SPR Biacore T200, Protein A capture, 1:1 model, experiment #1. As to the method: (§1) Briefly, surface plasmon resonance experiments were performed using a Biacore T200 instrument, and the association rate (kₐ), dissociation rate (kd), and dissociation constant (KD) were calculated from each experiment using a 1:1 binding model with Biacore T200 Evaluation Software.
Multispecific molecules were captured using a 30-sec injection at a flow rate of 10 μl/min to reach about 350 resonance units (RUs). […] The sensor chip was regenerated between cycles with two 30-sec injections of 10 mM glycine, pH 1.5. Sensorgrams were evaluated and fit to a simple Langmuir 1:1 interaction model using the global data analysis option of BIAevaluation 3.0 software. Data quality was verified by visually inspecting deviations and curve fitting, and by evaluating the parameters of Rₘₐₓ, Chi2, and Tc.

In assay [3] the target is T3, wild type full-length cynomolgus monkey TIGIT expressed on CHO cells (cynomolgus monkey, UniProt A0A7N9I9V4 89-312).
T3 construct: whole, on cells; also called cynomolgus TIGIT-CHO cells
T3 sequence (A0A7N9I9V4 entry or part of it): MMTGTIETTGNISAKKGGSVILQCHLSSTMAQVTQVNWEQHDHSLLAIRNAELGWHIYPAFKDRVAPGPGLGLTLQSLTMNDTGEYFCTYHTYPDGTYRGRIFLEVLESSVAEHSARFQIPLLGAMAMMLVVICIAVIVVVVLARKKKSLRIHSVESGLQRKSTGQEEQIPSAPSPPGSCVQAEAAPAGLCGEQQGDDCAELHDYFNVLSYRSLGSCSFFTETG
The assay is described as follows: flow cytometry on CHO cells expressing cynomolgus TIGIT, PE anti-human IgG Fc detection.

In assay [4] the target is T3, wild type full-length cynomolgus monkey …. The assay is described as follows: flow cytometry, blocking of human CD155-Fc-PE binding to CHO cells expressing cynomolgus TIGIT.
Assay [5] concerns the target T4, full-length ECD of cynomolgus monkey TIGIT (His-tagged) (cynomolgus monkey).
T4 construct: also called His-tagged cynomolgus monkey TIGIT; cyno TIGIT extracellular domain
The assay is described as follows: SPR Biacore T200, geomean of experiments #1 and #2. As to the method: as §1
(§2) Antibodies were captured using a 30-sec injection at a flow rate of 10 μl/min to reach about 500 resonance units (RUs). […] The sensor chip was regenerated between cycles with two 30-sec injections of 10 mM glycine, pH 1.5. Sensorgrams were evaluated and fit to a simple Langmuir 1:1 interaction model using the global data analysis option of BIAevaluation 3.0 software. Data quality was verified by visually inspecting deviations and curve fitting, and by evaluating the parameters of Rₘₐₓ, Chi2, and Tc.

Assay [6] deals with T5, full-length ECD of human TIGIT (His-tagged) (human).
T5 construct: also called His-tagged human TIGIT; human TIGIT extracellular domain
T5 chain: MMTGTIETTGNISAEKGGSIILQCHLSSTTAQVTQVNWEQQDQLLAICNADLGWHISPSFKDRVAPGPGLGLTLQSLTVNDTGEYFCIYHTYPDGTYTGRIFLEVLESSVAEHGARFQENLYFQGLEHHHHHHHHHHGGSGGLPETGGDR
In words: SPR Biacore T200, geomean of experiments #1 and #2. As for the experimental part: as §1, §2

The target of assay [7] is T3, wild type full-length cynomolgus monkey …. In words: flow cytometry on CHO cells expressing cynomolgus TIGIT, PE anti-human IgG Fc detection. The source holds these as a separate data set.
Assay [8] deals with CD8+ T cells (CD3-stimulated; Day 4). The assay is described as follows: flow cytometry on activated primary human T cells, gated CD8+, donor 2; PE anti-human IgG detection.
Protocol: A total of 8 dilutions ranging from 50 μg/mL to 0.000005 μg/mL were prepared. After four days, the sample plates were centrifuged for two minutes at 2000 rpm, and supernatants were discarded. Samples were blocked with FcγR Block prepared in FACs buffer at 5 μL per 100 μL test for 10 minutes. Sample plates were then centrifuged for two minutes at 2000 rpm, and the supernatant was discarded. […] Sample plates were incubated for 30 minutes at 4° C. Cells were washed by addition of cold sample buffer and centrifuged for two minutes at 2000 rpm, and the supernatant was discarded. This wash was repeated once.
Cells were then resuspended in a cocktail of fluorescently labeled antibodies. A cocktail of fluorescently labeled antibodies sufficient for all samples was prepared in FACs buffer. 100 μL of antibody per well was then added to a round-bottom 96-well plate. The sample plate was incubated for 20 minutes on ice. Cells were washed by addition of cold sample buffer, centrifuged for two minutes at 2000 rpm, and supernatants discarded. […]
Antibody binding was measured by flow cytometry using a BD LSR Fortessa Flow Cytometer. […] 100,000 events were recorded for each sample. Samples were analyzed by sequentially gating on the following populations: FSC-A vs. SSC-A, FSC-H vs. FSC-A, SSC-A vs. LIVE/DEAD, CD4 vs. CD8, and SSC vs. CD25. Mean fluorescence intensity (MFI) was calculated.
Assay [9] deals with T5, full-length ECD of human TIGIT …. The assay is described as follows: SPR Biacore T200, Protein A capture, 1:1 model, experiment #2. As to the method:
as §1
(§3) Multispecific molecules were captured using a 30-sec injection at a flow rate of 10 μl/min to reach about 1000 resonance units (RUs). […] The sensor chip was regenerated between cycles with two 30-sec injections of 10 mM glycine, pH 1.5. Sensorgrams were evaluated and fit to a simple Langmuir 1:1 interaction model using the global data analysis option of BIAevaluation 3.0 software. Data quality was verified by visually inspecting deviations and curve fitting, and by evaluating the parameters of Rₘₐₓ, Chi2, and Tc.

Assay [10] has the same target. The assay is described as follows: SPR Biacore T200, geomean of experiments #1 and #2. As to the method:
as §1, §3

Read-outs that look alike come from different tables or passages of the source.

B1: anti-TIGIT×CD96 multispecific molecule BA123 (bispecific antibody, human IgG1, kappa, lambda)
heavy 1: QVQLVQSGAEVKKPGASVKVSCKASGYTFTSYGISWVRQAPGQGLEWMGWISAYNANTNYAQKLQGRVTMTTDTSTSTAYMELRSLRSDDTAVYYCARSAGVLGGMDVWGRGTLVTVSSASTKGPSVFPLAPSSKSTSGGTAALGCLVKDYFPEPVTVSWNSGALTSGVHTFPAVLQSSGLYSLSSVVTVPSSSLGTQTYICNVNHKPSNTKVDKRVEPKSCDKTHTCPPCPAPELLGGPDVFLFPPKPKDTLMISRTPEVTCVVVDVSHEDPEVKFNWYVDGVEVHNAKTKPREEQYNSTYRVVSVLTVLHQDWLNGKEYKCKVSNKALPAPIEKTISKAKGQPREPQVYTLPPSREEMTKNQVSLSCAVKGFYPSDIAVEWESNGQPENNYKTTPPVLDSDGSFFLVSKLTVDKSRWQQGNVFSCSVMHEALHNHYTQKSLSLSPG
light 1: not shown
heavy 2: EVQLVQSGAEVKKPGSSVKVSCKASGYTFASYGISWVRQAPGQGLEWMGGITPFFNRVDVAEKFQGRVTITADKSTSTAYIELSSLRSEDTAVYYCARDLRRGGVGDAFDIWGRGTLVTVSSASTKGPSVFPLAPSSKSTSGGTAALGCLVKDYFPEPVTVSWNSGALTSGVHTFPAVLQSSGLYSLSSVVTVPSSSLGTQTYICNVNHKPSNTKVDKRVEPKSCDKTHTCPPCPAPELLGGPDVFLFPPKPKDTLMISRTPEVTCVVVDVSHEDPEVKFNWYVDGVEVHNAKTKPREEQYNSTYRVVSVLTVLHQDWLNGKEYKCKVSNKALPLPEEKTISKAKGQPREPQVYTLPPSREEMTKNQVSLWCLVKGFYPSDIAVEWESNGQPENNYKTTPPVLDSDGSFFLYSKLTVDKSRWQQGNVFSCSVMHEALHNHYTQKSLSLSPG
light 2: QSALTQPRSVSGSPGQSVTISCTGTSPDVGSHAYRSWYQQHPGKAPKLMIYEVSYRPSGVSNRFSGSKSGNTASLTISGLQAEDEADYYCSSYPPSSATVFGAGTKLTVLGQPKAAPSVTLFPPSSEELQANKATLVCLISDFYPGAVTVAWKADSSPVKAGVETTTPSKQSNNKYAASSYLSLTPEQWKSHRSYSCQVTHEGSTVEKTVAPTEC
notes: copies: 1 + 1 + 1 + 1
With B1, in assay [1], the 50% effective concentration (EC50) amounted to 1.04 µg/mL. In assay [2], the Kd stood at 48000 pM, the koff was 0.00379 s⁻¹ and the kon amounted to 79000 M⁻¹ s⁻¹. The “EC50 (read off the curve)” value in assay [3] is ~0.2 µg/mL. Moreover, in assay [4], the “IC50 (read off the curve)” value is ~2 µg/mL.

B2: anti-TIGIT monospecific antibody BA148 (antibody, human IgG1, lambda)
heavy: EVQLVQSGAEVKKPGSSVKVSCKASGYTFASYGISWVRQAPGQGLEWMGGITPFFNRVDVAEKFQGRVTITADKSTSTAYIELSSLRSEDTAVYYCARDLRRGGVGDAFDIWGRGTLVTVSSASTKGPSVFPLAPSSKSTSGGTAALGCLVKDYFPEPVTVSWNSGALTSGVHTFPAVLQSSGLYSLSSVVTVPSSSLGTQTYICNVNHKPSNTKVDKRVEPKSCDKTHTCPPCPAPELLGGPDVFLFPPKPKDTLMISRTPEVTCVVVDVSHEDPEVKFNWYVDGVEVHNAKTKPREEQYNSTYRVVSVLTVLHQDWLNGKEYKCKVSNKALPLPEEKTISKAKGQPREPQVYTLPPSREEMTKNQVSLTCLVKGFYPSDIAVEWESNGQPENNYKTTPPVLDSDGSFFLYSKLTVDKSRWQQGNVFSCSVMHEALHNHYTQKSLSLSPGK
light: B1 light 2
notes: IgG1; also called anti-TIGIT IgG1 antibody BA148
In the case of B2, the dissociation constant (Kd) is 3900 pM in assay [5] and 540 pM in assay [6].

B3: anti-TIGIT×CD96 multispecific molecule BA127 (bispecific antibody, human IgG1, kappa, lambda)
heavy 1: QVQLVQSGAEVKKPGASVKVSCKASGYTFTTYALHWVRQAPGQRLEWMGWINTGSGDTKYSQKFQGRVTITRDTSASTAYMELSSLRSEDTAVYYCARSLGVYYGMDVWGQGTLVTVSSASTKGPSVFPLAPSSKSTSGGTAALGCLVKDYFPEPVTVSWNSGALTSGVHTFPAVLQSSGLYSLSSVVTVPSSSLGTQTYICNVNHKPSNTKVDKRVEPKSCDKTHTCPPCPAPELLGGPDVFLFPPKPKDTLMISRTPEVTCVVVDVSHEDPEVKFNWYVDGVEVHNAKTKPREEQYNSTYRVVSVLTVLHQDWLNGKEYKCKVSNKALPAPIEKTISKAKGQPREPQVYTLPPSREEMTKNQVSLSCAVKGFYPSDIAVEWESNGQPENNYKTTPPVLDSDGSFFLVSKLTVDKSRWQQGNVFSCSVMHEALHNHYTQKSLSLSPG
light 1: not shown
heavy 2: B1 heavy 2
light 2: B1 light 2
notes: Anti-CD96 arm = BA139, anti-TIGIT arm = BA150; copies: 1 + 1 + 1 + 1
Turning to B3, in [7], the “EC50 (read off the curve)” value is ~0.2 µg/mL. In addition, the “EC50 (read off the curve)” value in assay [8] was ~0.06 µg/mL. In [9], this molecule came in with a Kd of 611 pM, a koff of 0.000385 s⁻¹ and an association rate constant (kon) of 631000 M⁻¹ s⁻¹. Also, in assay [10], the equilibrium dissociation constant (Kd) was determined as 590 pM.
